The text below walks through data of US7888090B2, “Mutants of O6-alkylguanine-DNA alkyltransferase” (Ecole Polytechnique Federale de Lausanne, priority 2004, dated 2011).

The nature of data set [1]: BG-Cy3 activity assay (reaction rate of AGT mutants). Format: biochemical. The settings on record: divided by value for wild type hAGT; purified GST fusion proteins (p.). How it is done:
Reactivity against DNA-based substrates measured with a BG-Cy3 assay: BG-Cy3 is prepared by reacting the previously described O^6-(4-aminomethyl-benzyl)guanine (Keppler et al., NatureBiotechnol. 21:86-89, 2003) with the commercially available N-hydroxysuccinimide ester of Cy3, (Cy3-NHS, Amersham). The coupling reaction is performed at ambient temperature in N,N-dimethylformamide in the presence of 1 eq. of triethylamine. The BG-Cy3 conjugate is purified by reversed-phase HPLC on a C18-column by using linear gradients from 0.1% trifluoroacetic acid to acetonitrile. After solvent evaporation BG-Cy3 is dissolved in dimethyl sulfoxide and stored at −20° C. For measuring the reactivity with DNA-based substrates, a reaction mixture containing different concentrations (0 to 5 µM) of oligonucleotide SEQ ID NO:2 (modified in position 14), GST-AGT fusion protein at 0.2 µM and BG-Cy3 at […] in reaction buffer (50 mM HEPES, pH 7.2, 1 mM DTT, 200 mg/ml BSA) is incubated in microtiterplates. Fluorescence of the Cy3 derivative (excitation 519 nm, emission at 572 nm) is measured on a Spectramax Gemini plate reader (Molecular Devices).
The amplified products are cloned in fusion to the g3 gene of filamentous phage in the vector pAK100 via SfiI restriction sites. The resulting gene libraries are used for phage display as described under Example 4. The mutants of the libraries are selected with 5 to 50 nM of BG-Bt for 10 min. Selected mutants are subcloned into pGEX using the primers SEQ ID NO:3 and SEQ ID NO:13. The reaction rate of mutant AGTs is determined as described in Example 6, Reactivity against DNA-based substrates (BG-Cy3 assay).
For the activity assay purified GST fusion proteins were used for mutants marked with “p.” (prepared as described under Example 1); periplasmic extracts were used for mutants marked with “x.” (prepared as described under Example 2).

Data set [2] can be described thus: Periplasmic expression / stability under oxidizing conditions. On the set-up: species or system E. coli. How it is done:
The activities towards AGT substrates are measured after purification without addition of reducing agents such as dithiothreitol or beta-mercaptoethanol. Alternatively, the activities of mutant AGT and wild type human are compared after their export into cellular compartments with oxidising redox potential (e.g. the periplasm of E. coli due to their fusion to appropriate signal sequences. Activity towards AGT substrates under reducing and oxidising conditions is compared by performing the reactions in the presence or absence of reducing agents such as dithiothreitol or beta-mercaptoethanol.
The mutant AGT gene of Example 1 is amplified and cloned as described in Example 1 with the oligonucleotides SEQ ID NO:3, SEQ ID NO:10 and SEQ ID NO:4, SEQ ID NO:9 causing the further mutation Cys62Ala in the gene upon their incorporation by PCR. Protein expression, purification and determination of yield is carried out as described in Example 1. The mutant gene is PCR amplified with the primers SEQ ID NO:11, SEQ ID NO:12 that contain SfiI restriction sites to subclone the gene in fusion to the g3 protein of filamentous phage in the vector pAK100 (Krebber et al., J Immunol Methods 201:35-55, 1997). […] The supernatant is directly subjected to quantification of protein yield via SDS-PAGE and activity assays as described in Example 1.
Stability under oxidizing conditions: The mutant gene is PCR amplified with the primers SEQ ID NO:11 and SEQ ID NO:28 to subclone the gene into pAK100, as described in Example 2. […] To compare the reactivity of […] (Juillerat et al., Chem Biol 10:313-317, 2003) and the mutant, samples are incubated with 1 µM BG-Bt for 50 min, quenched with SDS-Laemmli buffer and analyzed by western blotting using neutravidin peroxidase conjugate (Pierce) or a monoclonal mouse anti-FLAG IgG antibody (M2, Sigma) and a secondary anti-mouse-IgG::HRP conjugate, and Renaissance reagent plus (NEN). […] The anti-FLAG IgG antibody is used to estimate the total amount of soluble AGT protein, whereas neutravidin quantifies the reactive portion of it. […]

Another data set relates to CHO cells. As to the kind of experiment: Selective labelling in cells after CPTG pre-incubation. Conditions: 5 µM CPTG 10 min, then 5 µM fluorescent substance 4 20 min. Format: cell-based. An excerpt: In a further experiment, the mutant AGTM as described in Example 6 is amplified with the primers SEQ ID NO:34 and SEQ ID NO:36 and cloned between the NheI and BgIII sites of the vector pEGFP-Nuc. The […]-galactosidase gene is amplified with the primers SEQ ID NO:37 and SEQ ID NO:38 and subcloned into this vector via BgIII/BamHI to result in a vector with an AGTM-[…]-Gal fusion gene. The hAGT gene is amplified by the principle described under Example 1 with the primers SEQ ID NO:39, SEQ ID NO:40, SEQ ID NO:34, and SEQ ID NO:35 and cloned via NheI/BgIII into pEGFP-Nuc to result in an AGT-NLS3 fusion gene coding for the mutation Gly160Trp. After transient expression of both AGT mutants in parallel, the cells are incubated with 5 µM CPTG for 10 min and subsequently with 5 µM of substance 4 of Juillerat et al., Chem Biol 10:313-317, 2003, for 20 min. The cells are washed and imaged as described under Example 1.

B1: AGTM: AGT mutant Cys62Ala, Gln115Ser, Gln116His, Lys125Ala, Ala127Thr, Arg128Ala, Gly131Lys, Gly132Thr, Met134Leu, Arg135Ser, Cys150Asn, Ser151Ile, Ser152Asn, Asn157Gly, Ser159Glu, truncated after … (protein, UniProt P16455 1-207, looked up, variant C62A Q115S Q116H K125A A127T R128A G131K G132T M134L R135S C150N S151I S152N N157G S159E del183-207)
Methylated-DNA--protein-cystei …: MDKDCEMKRTTLDSPLGKLELSGCEQGLHEIKLLGKGTSAADAVEVPAPAAVLGGPEPLMQATAWLNAYFHQPEAIEEFPVPALHHPVFQQESFTRQVLWKLLKVVKFGEVISYSHLAALAGNPAATAAVKTALSGNPVPILIPCHRVVNINGAVGGYEGGLAVKEWLLAHEGHRLGKPGLG
modifications: His tag
In the case of B1, in data set [1], the Relative reaction rate is given as 2.72. Besides, the sensitivity to oxidation entry in data set [2] is “reduced sensitivity to oxidation”. For the same molecule, in the data set with CHO cells, the “reaction with CPTG inside cells” value is recorded as “does not react with CPTG”.
